In patent US20220025010A1 (ANTAG THERAPEUTICS, published 2022):
Like-named read-outs stand apart in the source and are kept apart here. *1 amine or outer side, *2 acyl side, *3 side chain or, on linkers, in order; H or OH if unused. Where no end group is shown, it is not given here. Side-chain parts run from the residue outwards. The star is where a group is joined. C18 diacid = O=C(O)CCCCCCCCCCCCCCCCC(=O)*; C16 diacid = O=C(O)CCCCCCCCCCCCCCC(=O)*; γGlu = O=C(O)[C@H](CCC(=O)[*:2])N[*:1]; AEEA = NCCOCCOCC(=O)O

B1: AT277 (peptide)
peptide: SGTFISDYSIAMDRIK([AEEA-AEEA-γGlu-C16 diacid])QQDFVNWLLAQR-OH
modifications: N-terminus assumed
SMILES: CC[C@H](C)[C@H](NC(=O)[C@H](CO)NC(=O)[C@H](Cc1ccc(O)cc1)NC(=O)[C@H](CC(=O)O)NC(=O)[C@H](CO)NC(=O)[C@@H](NC(=O)[C@H](Cc1ccccc1)NC(=O)[C@@H](NC(=O)CNC(=O)[C@@H](N)CO)[C@@H](C)O)[C@@H](C)CC)C(=O)N[C@@H](C)C(=O)N[C@@H](CCSC)C(=O)N[C@@H](CC(=O)O)C(=O)N[C@@H](CCCNC(=N)N)C(=O)N[C@H](C(=O)N[C@@H](CCCCNC(=O)COCCOCCNC(=O)COCCOCCNC(=O)CC[C@H](NC(=O)CCCCCCCCCCCCCCC(=O)O)C(=O)O)C(=O)N[C@@H](CCC(N)=O)C(=O)N[C@@H](CCC(N)=O)C(=O)N[C@@H](CC(=O)O)C(=O)N[C@@H](Cc1ccccc1)C(=O)N[C@H](C(=O)N[C@@H](CC(N)=O)C(=O)N[C@@H](Cc1c[nH]c2ccccc12)C(=O)N[C@@H](CC(C)C)C(=O)N[C@@H](CC(C)C)C(=O)N[C@@H](C)C(=O)N[C@@H](CCC(N)=O)C(=O)N[C@@H](CCCNC(=N)N)C(=O)O)C(C)C)[C@@H](C)CC
B2: AT354 (peptide)
peptide: ISDYSIAMDKIK(C16 diacid)QQDFVNWLLAQK-NH2
modifications: N-terminus assumed
SMILES: CC[C@H](C)[C@H](N)C(=O)N[C@@H](CO)C(=O)N[C@@H](CC(=O)O)C(=O)N[C@@H](Cc1ccc(O)cc1)C(=O)N[C@@H](CO)C(=O)N[C@H](C(=O)N[C@@H](C)C(=O)N[C@@H](CCSC)C(=O)N[C@@H](CC(=O)O)C(=O)N[C@@H](CCCCN)C(=O)N[C@H](C(=O)N[C@@H](CCCCNC(=O)CCCCCCCCCCCCCCC(=O)O)C(=O)N[C@@H](CCC(N)=O)C(=O)N[C@@H](CCC(N)=O)C(=O)N[C@@H](CC(=O)O)C(=O)N[C@@H](Cc1ccccc1)C(=O)N[C@H](C(=O)N[C@@H](CC(N)=O)C(=O)N[C@@H](Cc1c[nH]c2ccccc12)C(=O)N[C@@H](CC(C)C)C(=O)N[C@@H](CC(C)C)C(=O)N[C@@H](C)C(=O)N[C@@H](CCC(N)=O)C(=O)N[C@@H](CCCCN)C(N)=O)C(C)C)[C@@H](C)CC)[C@@H](C)CC
B3: AT393 (peptide)
peptide: SGTFISDYSIAMDRIK(C18 diacid)QQDFVNWLLAQR-NH2
modifications: N-terminus assumed
SMILES: CC[C@H](C)[C@H](NC(=O)[C@H](CO)NC(=O)[C@H](Cc1ccc(O)cc1)NC(=O)[C@H](CC(=O)O)NC(=O)[C@H](CO)NC(=O)[C@@H](NC(=O)[C@H](Cc1ccccc1)NC(=O)[C@@H](NC(=O)CNC(=O)[C@@H](N)CO)[C@@H](C)O)[C@@H](C)CC)C(=O)N[C@@H](C)C(=O)N[C@@H](CCSC)C(=O)N[C@@H](CC(=O)O)C(=O)N[C@@H](CCCNC(=N)N)C(=O)N[C@H](C(=O)N[C@@H](CCCCNC(=O)CCCCCCCCCCCCCCCCC(=O)O)C(=O)N[C@@H](CCC(N)=O)C(=O)N[C@@H](CCC(N)=O)C(=O)N[C@@H](CC(=O)O)C(=O)N[C@@H](Cc1ccccc1)C(=O)N[C@H](C(=O)N[C@@H](CC(N)=O)C(=O)N[C@@H](Cc1c[nH]c2ccccc12)C(=O)N[C@@H](CC(C)C)C(=O)N[C@@H](CC(C)C)C(=O)N[C@@H](C)C(=O)N[C@@H](CCC(N)=O)C(=O)N[C@@H](CCCNC(=N)N)C(N)=O)C(C)C)[C@@H](C)CC
B4: AT357 (peptide)
peptide: YSIAMDKIK(C16 diacid)QQDFVNWLLAQK-NH2
modifications: N-terminus assumed
SMILES: CC[C@H](C)[C@H](NC(=O)[C@H](CO)NC(=O)[C@@H](N)Cc1ccc(O)cc1)C(=O)N[C@@H](C)C(=O)N[C@@H](CCSC)C(=O)N[C@@H](CC(=O)O)C(=O)N[C@@H](CCCCN)C(=O)N[C@H](C(=O)N[C@@H](CCCCNC(=O)CCCCCCCCCCCCCCC(=O)O)C(=O)N[C@@H](CCC(N)=O)C(=O)N[C@@H](CCC(N)=O)C(=O)N[C@@H](CC(=O)O)C(=O)N[C@@H](Cc1ccccc1)C(=O)N[C@H](C(=O)N[C@@H](CC(N)=O)C(=O)N[C@@H](Cc1c[nH]c2ccccc12)C(=O)N[C@@H](CC(C)C)C(=O)N[C@@H](CC(C)C)C(=O)N[C@@H](C)C(=O)N[C@@H](CCC(N)=O)C(=O)N[C@@H](CCCCN)C(N)=O)C(C)C)[C@@H](C)CC
B5: AT385 (peptide)
peptide: SGTFISDYSIAMDRIK([AEEA-AEEA-AEEA-γGlu-C18 diacid])QQDFVNWLLAQR-NH2
modifications: N-terminus assumed
SMILES: CC[C@H](C)[C@H](NC(=O)[C@H](CO)NC(=O)[C@H](Cc1ccc(O)cc1)NC(=O)[C@H](CC(=O)O)NC(=O)[C@H](CO)NC(=O)[C@@H](NC(=O)[C@H](Cc1ccccc1)NC(=O)[C@@H](NC(=O)CNC(=O)[C@@H](N)CO)[C@@H](C)O)[C@@H](C)CC)C(=O)N[C@@H](C)C(=O)N[C@@H](CCSC)C(=O)N[C@@H](CC(=O)O)C(=O)N[C@@H](CCCNC(=N)N)C(=O)N[C@H](C(=O)N[C@@H](CCCCNC(=O)COCCOCCNC(=O)COCCOCCNC(=O)COCCOCCNC(=O)CC[C@H](NC(=O)CCCCCCCCCCCCCCCCC(=O)O)C(=O)O)C(=O)N[C@@H](CCC(N)=O)C(=O)N[C@@H](CCC(N)=O)C(=O)N[C@@H](CC(=O)O)C(=O)N[C@@H](Cc1ccccc1)C(=O)N[C@H](C(=O)N[C@@H](CC(N)=O)C(=O)N[C@@H](Cc1c[nH]c2ccccc12)C(=O)N[C@@H](CC(C)C)C(=O)N[C@@H](CC(C)C)C(=O)N[C@@H](C)C(=O)N[C@@H](CCC(N)=O)C(=O)N[C@@H](CCCNC(=N)N)C(N)=O)C(C)C)[C@@H](C)CC
B6: AT355 (peptide)
peptide: SDYSIAMDKIK(C16 diacid)QQDFVNWLLAQK-NH2
modifications: N-terminus assumed
SMILES: CC[C@H](C)[C@H](NC(=O)[C@H](CO)NC(=O)[C@H](Cc1ccc(O)cc1)NC(=O)[C@H](CC(=O)O)NC(=O)[C@@H](N)CO)C(=O)N[C@@H](C)C(=O)N[C@@H](CCSC)C(=O)N[C@@H](CC(=O)O)C(=O)N[C@@H](CCCCN)C(=O)N[C@H](C(=O)N[C@@H](CCCCNC(=O)CCCCCCCCCCCCCCC(=O)O)C(=O)N[C@@H](CCC(N)=O)C(=O)N[C@@H](CCC(N)=O)C(=O)N[C@@H](CC(=O)O)C(=O)N[C@@H](Cc1ccccc1)C(=O)N[C@H](C(=O)N[C@@H](CC(N)=O)C(=O)N[C@@H](Cc1c[nH]c2ccccc12)C(=O)N[C@@H](CC(C)C)C(=O)N[C@@H](CC(C)C)C(=O)N[C@@H](C)C(=O)N[C@@H](CCC(N)=O)C(=O)N[C@@H](CCCCN)C(N)=O)C(C)C)[C@@H](C)CC

How the values were obtained:
Test in all cases: cell-based or functional assay
GLP1 receptor = GLP1 receptor (UniProt P43220 24-463, limits assumed)
human GIP receptor [1] = target: T1, human GIP receptor (human, UniProt P48546 22-466)
T1 sequence (looked up): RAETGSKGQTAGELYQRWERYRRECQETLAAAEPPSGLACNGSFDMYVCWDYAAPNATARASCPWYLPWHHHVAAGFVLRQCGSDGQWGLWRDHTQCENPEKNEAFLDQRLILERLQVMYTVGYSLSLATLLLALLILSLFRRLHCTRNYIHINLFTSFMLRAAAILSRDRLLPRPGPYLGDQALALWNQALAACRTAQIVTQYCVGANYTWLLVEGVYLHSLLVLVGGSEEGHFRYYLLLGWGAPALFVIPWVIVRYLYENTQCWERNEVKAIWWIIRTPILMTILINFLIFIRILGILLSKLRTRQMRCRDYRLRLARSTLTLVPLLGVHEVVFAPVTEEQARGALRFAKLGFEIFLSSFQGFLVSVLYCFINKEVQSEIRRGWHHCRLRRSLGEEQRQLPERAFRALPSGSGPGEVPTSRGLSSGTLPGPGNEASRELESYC

human GIP receptor [2] = target: T1, human GIP receptor; remark: listed apart in the source
human GIP receptor [3] = target: T1, human GIP receptor; remark: listed apart in the source

Binder | cAMP antagonism % inhib (GLP1 receptor) [%] | cAMP antagonism IC50 (GLP1 receptor) [nM] | cAMP antagonism index (GLP1 receptor) | cAMP antagonism log IC50 (GLP1 receptor) [log M] | CisBio cAMP antagonism % inhib (human GIP receptor [1]) [%] | CisBio cAMP antagonism IC50 (human GIP receptor [1]) [nM] | cAMP antagonism IC50 (human GIP receptor [1]) [nM] | CisBio cAMP agonism % Efficacy (human GIP receptor [2]) [%] | CisBio cAMP antagonism % inhib (human GIP receptor [2]) [%] | CisBio cAMP antagonism IC50 (human GIP receptor [2]) [nM] | CisBio cAMP antagonism pIC50 (human GIP receptor [2]) | DiscoveRx cAMP agonism Emax (human GIP receptor [2]) | DiscoveRx cAMP antagonism IC50 (human GIP receptor [2]) [nM] | DiscoveRx cAMP antagonism log IC50 (human GIP receptor [2]) [log M] | cAMP antagonism % inhib (human GIP receptor [3]) [%] | cAMP antagonism IC50 (human GIP receptor [3]) [nM] | cAMP antagonism log IC50 (human GIP receptor [3]) [log M] | cAMP antagonism % inhib (human GIP receptor [1]) [%] | DiscoveRx cAMP antagonism % inhib (human GIP receptor [2]) [%]
B1 | 68 | 6100 | 561 | -5.2 | 84 | 31.6 | 16 | 8 | 84 | 31.6 | 7.5 | 9 | 16 | -7.8 | – | – | – | – | –
B2 | – | – | – | – | – | – | – | 0 | 91 | 108 | 7 | – | – | – | 100 | 10 | -8 | – | –
B3 | – | – | – | – | 78 | 33.5 | 1 | 6 | 78 | 33.5 | 7.5 | – | 1 | -8.9 | – | – | – | 100 | 100
B4 | – | – | – | – | – | – | – | 0 | 40 | 178 | 6.8 | – | – | – | 100 | 528 | -6.3 | – | –
B5 | – | – | – | – | 70 | 43 | 4 | 3 | 70 | 43 | 7.4 | – | 4 | -8.4 | – | – | – | 100 | 100
B6 | – | – | – | – | – | – | – | 0 | 65 | 233 | 6.6 | – | – | – | 100 | 53 | -7.3 | – | –
